Square brackets hold non-standard residues; d marks the D form. Side chains are listed from the residue outwards. Ends that are not written are not given here. * marks the point of attachment. memantine = CC12CC3CC(C)(C1)CC(N*)(C3)C2; disulfide linker = not defined here; Pen = CC(C)(S)[C@H](N)C(=O)O

This note sets out measurements from patent publication US20250025566A1, “PEPTIDE-DRUG CONJUGATES FOR TREATMENT OF NEURODEGENERATIVE DISEASES” (KØBENHAVNS UNIVERSITET, priority 2021, published 2025).

In data set [1] the test system is primary rat hippocampal neurons. The data set is described as follows: Neuroprotection in primary hippocampal neurons (NMDA-induced neurotoxicity, LDH activity). It is filed as cell-based. The settings on record: NMDA 100 μM, 24 hours, GLP-1 1 μM. As to the method:
Primary rat hippocampal neurons were incubated with either buffer, NMDA (to induce neurotoxicity), NDMA+GLP-1 or NMDA+GLP-1/memantine conjugate for 24 hours. Media was harvested and analysed for Lactate Dehydrogenase (LDH) activity as an indirect measure of cellular cytotoxicity.
Primary cultures of hippocampal neurons were prepared from Sprague-Dawley rat fetuses (E18) and cells were diluted in Neurobasal medium containing B27 supplement (5×10^5 cells/mL) in a Poly-L-Lysin pre-coated 24-well cell culture plate. The neurons were kept at 37° C. in a humidified incubator with 5% C02 atmosphere. After 8 days in vitro, cultures were treated with either vehicle, NMDA (100 μM), NMDA+GLP-1 (1 μM) or NMDA+GLP-1/Memantine for 24 hours. Cell culture medium (50 μL) was dispatched to a 96-well ELISA plate and analyzed for Lactate Dehydrogenase (LDH) activity (CytoTox-96, Nonradioactive Cytotoxicity assay, Promega) according to the manufacturer's protocol.

In data set [2] the test system is pro-inflammatory markers IL-1b, IL-6 and TNF-α. The data set is described as follows: Gene expression of pro-inflammatory markers in hippocampus of 5×FAD mice (qPCR). The settings on record: once-daily subcutaneous, 49 days. It is filed as in vivo. On the procedure:
Expression (as measured by mRNA) of pro-inflammatory markers, IL-1b, IL-6 and TNF-α increased across the board in the 5×FAD AD mouse model.
Experiments were conducted using female 5×FAD (Jackson Laboratory, 34840-JAX) mice kept on a chow diet (Altromin #1310, Lage, Germany). The pharmacological studies were initiated at 8-week of age and the mice treated with once-daily subcutaneous injections of GLP-1/memantine or saline (control) for 49 days with weekly measurements of body weight. Specifically, compounds were administered at a volume of 5 μL per gram, mice group-housed (n=2-5 mice per cage) and maintained on a 12-hour light-dark cycle (light 6 am-[…]) at a temperature of 21-23° C. […]
Hippocampal tissue from Example 3 was homogenized in a Trizol reagent (QIAzol Lysis Reagent, Qiagen) using a stainless steel bead (Qiagen) and a TissueLyser LT (Qiagen) for 3 min at 20 Hz. […] After RNA extraction, RNA content was measured using a NanoDrop 2000 (Thermo Fisher) and 500 ng of RNA was converted into cDNA by mixing FS buffer and DTT (Thermo Fisher) with Random Primers (Sigma-Aldrich) and incubated for 3 min at 70° C. followed by addition of dNTPs, RNase out, Superscript III (Thermo Fisher) and placed in a thermal cycler for 5 min at 25° C., 60 min at 50° C., 15 min at 70° C., and kept at −20° C. until further processing. […]
In general terms: In qPCR the cycle at which signal appears reflects the starting amount.

A short description of data set [3]: Body weight progression of 5×FAD Alzheimer's disease mouse model. It is filed as in vivo. The note with it: female 5×FAD mice, 100 nmol/kg/day subcutaneous daily, 49 days. On the procedure: Female wild-type (WT) control mice+vehicle treatment (n=12), 5×FAD AD mice+vehicle treatment and 5×FAD AD mice+GLP-1/memantine (100 nmol/kg/day) treatment were subcutaneously injected daily for 49 days following which brain regions of the mice were dissected and saved for ex vivo analyses.
Experiments were conducted using female 5×FAD (Jackson Laboratory, 34840-JAX) mice kept on a chow diet (Altromin #1310, Lage, Germany). The pharmacological studies were initiated at 8-week of age and the mice treated with once-daily subcutaneous injections of GLP-1/memantine or saline (control) for 49 days with weekly measurements of body weight. Specifically, compounds were administered at a volume of 5 μL per gram, mice group-housed (n=2-5 mice per cage) and maintained on a 12-hour light-dark cycle (light 6 am-[…]) at a temperature of 21-23° C. For week 5 and 6, the mice were single-housed and transferred to a digitally ventilated cage system. For week 7, the mice were re-grouped in groups identical to weeks 0 to 4. Finally, mice were euthanized on day 49, tissues harvested, snap-frozen using liquid nitrogen and stored at −80° C. prior to analyses.

In data set [4] the test system is 5×FAD mice. The data set is described as follows: Number of amyloid plaques in frontal cortex and hippocampus of 5×FAD mice (Thioflavine S). It is filed as in vivo. The settings on record: once-daily subcutaneous, 49 days, vs saline. From the text:
Amyloid plaques are commonly found in subjects suffering from Alzheimer's and is caused by abnormal levels of the naturally occurring protein beta-amyloid 42 which clump together to form plaques that collect between neurons and disrupt cell function. Thus, patients suffering from Alzheimer's display elevated levels of amyloid plaques. […] Thus, without being bound by any particular theory, the inventors postulate that the conjugated molecule according to the present invention has a neuroprotective role.
Experiments were conducted using female 5×FAD (Jackson Laboratory, 34840-JAX) mice kept on a chow diet (Altromin #1310, Lage, Germany). The pharmacological studies were initiated at 8-week of age and the mice treated with once-daily subcutaneous injections of GLP-1/memantine or saline (control) for 49 days. Specifically, compounds were administered at a volume of 5 μL per gram, mice group housed (n=2-5 mice per cage) and maintained on a 12-hour light-dark cycle (light 6 am-[…]) at a temperature of 21-23° C. For week 5 and 6, the mice were single-housed and transferred to a digitally ventilated cage system. […] Every 6th slide through hippocampus (bregma: −2.80 mm to −0.94 mm) and frontal cortex (bregma: 0.14 mm to 2.96 mm) were collected and stained with Thioflavine S to quantify amyloid plaque deposition.

“GLP-1: GLP-1 peptide alone, the unconjugated peptide control in the neuroprotection test [reference compound]”: the “NMDA-induced neurotoxicity (Lactate Dehydrogenase activity in media as indirect measure of cytotoxicity)” value in data set [1] is “but not GLP-1 peptide alone, prevents the NMDA-induced neurotoxicity”.
Take “GLP-1 Pen40/memantine: GLP-1 peptide of SEQ ID NO:1 with Pen40, conjugated to memantine via disulfide linker (penicillamine linked) (HAEGTFTSDVSSYLEEQAAKEFIAWLVKGGPSSGAPPPS[Pen]([disulfide linker-memantine])-NH2; reading uncertain; listed as Homo sapiens)”: the “NMDA-induced neurotoxicity (Lactate Dehydrogenase activity in media as indirect measure of cytotoxicity)” value in data set [1] is given as “prevents the NMDA-induced neurotoxicity”. For the same substance, the “expression (mRNA) of pro-inflammatory markers IL-1b, IL-6 and TNF-α in hippocampus” value in data set [2] is recorded as “completely abolishes the induction of inflammation”. Besides, the body weight progression entry in data set [3] is on record as “elicits only a transient weight loss”. Also, in data set [4], the “number of amyloid plaques in frontal cortex and hippocampus” value is “reduced formation of amyloid plaques”.
